Patent US20040138119

Legend:
[1] = biological target: purified recombinant Survivin (untagged)
[2] = biological target: combination of His6-HBXIP and Survivin

B1: recombinant active Caspase-3 (protein)
chain: SGISLDNSYKMDYPEMGLCIIINNKNFHKSTGMTSRSGTDVDAANLRETFRNLKYEVRNKNDLTREEIVELMRDVSKEDHSKRSSFVCVLLSHGEEGIIFGTNGPVDLKKITNFFRGDRCRSLTGKPKLFIIQACRGTELDCGIETDSGVDDDMACHKIPVEADFLYAYSTAPGYYSWRNSKDGSWFIQSLCAMLKQYADKLEFMHILTRVNRKVATEFESFSFDATFHAKKQIPCIVSMLTKELYFYH
[1]
  Caspase-3 protease activity, hydrolysis of Ac-DEVD-AFC: Even at a 1000-fold molar excess of Survivin relative to active Caspase-3, essentially no inhibition was observed.

B2: His6-pro-Caspase-9 (protein)
chain: HHHHHHMDEADRRLLRRCRLRLVEELQVDQLWDALLSRELFRPHMIEDIQRAGSGSRRDQARQLIIDLETRGSQALPLFISCLEDTGQDMLASFLRTNRQAAKLSKPTLENLTPVVLRPEIRKPEVLRPETPRPVDIGSGGFGDVGALESLRGNADLAYILSMEPCGHCLIINNVNFCRESGLRTRTGSNIDCEKLRRRFSSLHFMVEVKGDLTAKKMVLALLELAQQDHGALDCCVVVILSHGCQASHLQFPGAVYGTDGCPVSVEKIVNIFNGTSCPSLGGKPKLFFIQACGGEQKDHGFEVASTSPEDESPGSNPEPDATPFQEGLRTFDQLDAISSLPTPSDIFVSYSTFPGFVSWRDPKSGSWYVETLDDIFEQWAHSEDLQSLLLRVANAVSVKGIYKQMPGCFNFLRKKLFFKTS
[1]
  Caspase-9 activity (cleavage of Ac-LEHD-AFC) and pro-Caspase-9 processing after Apaf1, Cytochrome C and dATP: Addition of either recombinant purified Survivin or HBXIP individually was ineffective at blocking Apaf1-mediated activation and proteolytic processing of pro-Caspase-9 in vitro.
His6-HBXIP
  Caspase-9 activity (cleavage of Ac-LEHD-AFC) and pro-Caspase-9 processing after Apaf1, Cytochrome C and dATP: Addition of either recombinant purified Survivin or HBXIP individually was ineffective at blocking Apaf1-mediated activation and proteolytic processing of pro-Caspase-9 in vitro.
[2]
  Caspase-9 activity (cleavage of Ac-LEHD-AFC) and pro-Caspase-9 processing after Apaf1, Cytochrome C and dATP: the combination of Survivin and HBXIP effectively suppressed generation of Caspase-9 protease activity
